The target in the test is His-SUMO-FGF23 (N-terminal domain of human FGF23, wild type) (human) (UniProt Q9GZV9). The test is described as follows: ELISA. On the technique in general: An ELISA detects its analyte on a solid surface through an enzyme-linked reagent.
His-SUMO-FGF23 (N-terminal domain of human FGF23, wild type) (human), sequence (Q9GZV9 25-204): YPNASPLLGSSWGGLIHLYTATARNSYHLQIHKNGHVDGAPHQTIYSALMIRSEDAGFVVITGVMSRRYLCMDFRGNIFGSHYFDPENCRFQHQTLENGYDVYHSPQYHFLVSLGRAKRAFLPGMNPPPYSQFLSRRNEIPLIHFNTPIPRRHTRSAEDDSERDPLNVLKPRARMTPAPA
As to Burosumab VL:T69D, the Kd (in general, a measure of binding affinity in units of concentration) was 860 pM.

The substance Burosumab VL:S52D came in with a Kd of 700 pM.

In the case of Burosumab VL:S67Y, the Kd came to 730 pM.
